These are literature values, as cited in article PMC7114193.

What is called Kd is the free concentration of one partner at which half of the binding sites on the other are occupied at equilibrium, for simple one-to-one binding.

For this data set, the target named is ACE2 (Homo sapiens) (UniProt Q9BYF1).
Sequence of ACE2 (Homo sapiens) (Q9BYF1 18-740): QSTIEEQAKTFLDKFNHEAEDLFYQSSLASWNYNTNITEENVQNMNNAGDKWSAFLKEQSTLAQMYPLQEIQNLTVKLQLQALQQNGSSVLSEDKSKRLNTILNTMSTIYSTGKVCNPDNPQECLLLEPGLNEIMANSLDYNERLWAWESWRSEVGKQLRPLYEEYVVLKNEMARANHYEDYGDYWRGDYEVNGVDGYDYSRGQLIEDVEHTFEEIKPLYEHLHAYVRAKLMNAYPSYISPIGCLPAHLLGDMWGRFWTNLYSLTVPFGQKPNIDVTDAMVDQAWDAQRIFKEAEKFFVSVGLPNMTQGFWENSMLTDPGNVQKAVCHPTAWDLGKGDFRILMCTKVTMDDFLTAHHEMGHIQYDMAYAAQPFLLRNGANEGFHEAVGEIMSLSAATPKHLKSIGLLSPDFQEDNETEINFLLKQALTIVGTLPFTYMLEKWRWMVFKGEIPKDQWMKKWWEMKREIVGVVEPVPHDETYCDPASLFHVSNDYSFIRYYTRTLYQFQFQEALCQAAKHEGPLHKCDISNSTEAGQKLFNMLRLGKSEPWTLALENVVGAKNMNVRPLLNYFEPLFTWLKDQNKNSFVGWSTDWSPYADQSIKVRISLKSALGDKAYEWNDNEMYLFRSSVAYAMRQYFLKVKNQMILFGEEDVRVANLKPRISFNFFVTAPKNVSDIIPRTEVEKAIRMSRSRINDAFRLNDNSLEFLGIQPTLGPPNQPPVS

As to RBD-Fc 318-510 (from UniProt P59594), the Kd is 10 nM.
